One test deals with FcγRIIa H131 (UniProt P12318). As to the kind of experiment: SPR. On the technique in general: SPR reads the build-up and loss of mass on a sensor chip optically.
The target of the next test is FcγRIIIa F158 (UniProt P08637). As to the kind of experiment: SPR.
The next test addresses FcγRIIIa V158. The test is described as follows: SPR.
A further test addresses FcγRIIa R131 (UniProt P12318). As to the kind of experiment: SPR.
The next test concerns the target FcγRIIb (UniProt P31994). The test is described as follows: SPR.
In test [1] the target is CAP256-VRC26.25 IgG3*17 (human). The test is described as follows: SPR; antibodies printed at 200 nM in 25 mM sodium acetate pH 5.0 on an NHS/EDC-activated carboxymethyldextran gold prism (CFM, MX96 array reader); FcγRs injected in PBS + 0.05% Tween 20, 8-part 3-fold dilution series generally starting between 10 and 50 μM, 5 min association, 5 min dissociation; kinetic global analysis for KD.

Drawing on article PMC6936867, this text covers Kd and fold less binding than other variants for eight substances.

FcγRIIIa F158, sequence (P08637 17-254): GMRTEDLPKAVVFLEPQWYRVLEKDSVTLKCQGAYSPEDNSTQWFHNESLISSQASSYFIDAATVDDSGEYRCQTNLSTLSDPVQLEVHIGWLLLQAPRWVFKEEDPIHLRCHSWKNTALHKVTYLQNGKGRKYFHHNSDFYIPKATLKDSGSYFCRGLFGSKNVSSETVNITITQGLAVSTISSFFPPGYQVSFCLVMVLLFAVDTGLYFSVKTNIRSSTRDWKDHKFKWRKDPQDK
FcγRIIIa V158, sequence (P08637 17-208 F176V): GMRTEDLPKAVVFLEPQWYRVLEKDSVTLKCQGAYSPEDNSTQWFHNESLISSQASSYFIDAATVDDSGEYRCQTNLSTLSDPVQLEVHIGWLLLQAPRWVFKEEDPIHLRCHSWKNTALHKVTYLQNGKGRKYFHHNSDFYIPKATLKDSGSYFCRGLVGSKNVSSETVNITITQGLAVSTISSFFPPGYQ
FcγRIIa H131, sequence (P12318 34-317): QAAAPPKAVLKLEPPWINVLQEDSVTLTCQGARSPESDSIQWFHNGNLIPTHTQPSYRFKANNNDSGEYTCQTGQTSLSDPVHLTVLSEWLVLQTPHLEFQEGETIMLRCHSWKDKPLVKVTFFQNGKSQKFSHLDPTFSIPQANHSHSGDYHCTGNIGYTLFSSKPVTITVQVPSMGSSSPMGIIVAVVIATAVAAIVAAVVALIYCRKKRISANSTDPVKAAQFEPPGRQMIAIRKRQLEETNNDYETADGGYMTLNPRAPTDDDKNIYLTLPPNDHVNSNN
FcγRIIb, sequence (P31994 43-310): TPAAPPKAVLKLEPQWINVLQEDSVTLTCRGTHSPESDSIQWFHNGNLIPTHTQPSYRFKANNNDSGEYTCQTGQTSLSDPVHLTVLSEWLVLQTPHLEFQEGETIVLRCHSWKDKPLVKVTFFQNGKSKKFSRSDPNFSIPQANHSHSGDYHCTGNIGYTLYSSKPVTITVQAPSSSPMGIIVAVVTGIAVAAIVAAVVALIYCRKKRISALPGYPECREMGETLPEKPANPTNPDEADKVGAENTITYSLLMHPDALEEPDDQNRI
FcγRIIa R131, sequence (P12318 34-217 H167R): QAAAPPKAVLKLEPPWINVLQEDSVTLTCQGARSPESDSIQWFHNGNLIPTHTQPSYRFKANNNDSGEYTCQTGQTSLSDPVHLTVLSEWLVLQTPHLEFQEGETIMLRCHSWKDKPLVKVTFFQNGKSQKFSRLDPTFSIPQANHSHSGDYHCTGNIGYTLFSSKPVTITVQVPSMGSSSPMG

For “CAP256-VRC26.29 IgG3*01m (from UniProt P01860)”, the figures for the Kd with FcγRIIa H131, with FcγRIIIa F158 and with FcγRIIIa V158 were 1.4 µM, 3.9 µM and 2.7 µM, respectively.
For “CAP256-VRC26.29 IgG3*01 (from UniProt P01860)”, the equilibrium dissociation constant (Kd) with FcγRIIa H131 is 1.3 µM; with FcγRIIIa F158, 4.4 µM; with FcγRIIIa V158, 2.6 µM.
As to “CAP256-VRC26.29 IgG3*17 (from UniProt P01860)”, the Kd is 1.3 µM with FcγRIIa H131; 4.5 µM with FcγRIIIa F158; 2.9 µM in the test with FcγRIIa R131; 2.4 µM with FcγRIIIa V158; 4.1 µM with FcγRIIb.
For FcγRIIIa, the fold less binding than other variants in test [1] is 1.7 to 1.9 fold.
Regarding CAP256-VRC26.25 IgG3*17, the dissociation constant (Kd) with FcγRIIa H131 worked out at 1 µM; with FcγRIIIa F158, 4.9 µM; with FcγRIIa R131 it was 2 µM; with FcγRIIIa V158, 4.1 µM; with FcγRIIb, 4.5 µM.
On to CAP256-VRC26.25 IgG3*01, for which the Kd in the test with FcγRIIa H131 was determined as 1 µM; in the test with FcγRIIIa F158, 3.1 µM; in the test with FcγRIIa R131, 3.9 µM; with FcγRIIIa V158, 2.2 µM; with FcγRIIb, 4.6 µM.
In the case of CAP256-VRC26.25 IgG1, the Kd with FcγRIIa H131 was 5.6 µM; with FcγRIIIa F158, 3.9 µM; with FcγRIIa R131, 5.7 µM; in the test with FcγRIIIa V158, 2.4 µM; with FcγRIIb, 6.6 µM.
For “CAP256-VRC26.29 IgG1 (from UniProt P01857)”, the Kd worked out at 5.5 µM in the test with FcγRIIa H131; 4.5 µM with FcγRIIIa F158; 5.2 µM with FcγRIIa R131; 3.6 µM with FcγRIIIa V158; 5.4 µM with FcγRIIb.

As usually defined, the Kd is a measure of binding affinity in units of concentration. The low end stands for a tighter complex, the high end for a looser complex.
